Laboratory results: article PMC9755681, “Next-generation sequencing of a combinatorial peptide phage library screened against ubiquitin identifies peptide aptamers that can inhibit the in vitro ubiquitin transfer cascade” (Frontiers in Microbiology, 2022)
No end group written: not given here. *: point of attachment. Biotin = O=C1N[C@H]2[C@H](CS[C@H]2CCCCC(=O)*)N1

Columns and labels:
[1] = target: T1, uniformly labeled 15N-human ubiquitin (human, UniProt P0CG48 1-76, uniformly 15N-labeled); test: NMR titration; 1H-15N HSQC and 15N relaxation of 0.5 mM 15N-ubiquitin, 10 mM sodium phosphate pH 5.0, 298 K, without and with peptide (0.64 mg peptide 12 or 0.7 mg peptide 37 in 0.55 ml); settings: both partners purified
T1 construct: ubiquitin, human; the 76-residue ubiquitin unit cut from its precursor; also called N15-labeled Ubiquitin; source: bought: Asla Biotech (Latvia)

[2] = target: T2, Ubiquitin (ubiquitination reactions, HDX-MS and reverse-phase HPLC) (human, UniProt P0CG48 1-76); test: HDX-MS; global deuteration of intact ubiquitin, 2 uM, ubiquitin to peptide 1:2 and 1:5, room temperature, 1 min in deuterated water with 0.1% DMSO; settings: both partners purified
T2 construct: ubiquitin, human; the 76-residue ubiquitin unit cut from its precursor; That the HDX/HPLC ubiquitin is the Boston Biochem one is surmised; also called ubiquitin protein; native ubiquitin; source: bought: Boston Biochem (ubiquitination reactions)

Row | Binder | binding result [1] | binding result [2]
1 | FIPAQLHFHWRS-NH2 (phage-selected 12-mer; source: synthetic peptide) [Non-tagged Peptide-37 (FIPAQLHFHWRS), non-biotinylated with a C-terminal NH2] | binds | 
2 | AKFDMHIATRLS-NH2 (phage-selected 12-mer; source: synthetic peptide) [Non-tagged peptide-12 (AKFDMHIATRLS), non-biotinylated with a C-terminal NH2] | binds | 
3 | Biotin-SGSGFIPAQLHFHWRS-NH2 (SMILES CC[C@H](C)[C@H](NC(=O)[C@H](Cc1ccccc1)NC(=O)CNC(=O)[C@H](CO)NC(=O)CNC(=O)[C@H](CO)NC(=O)CCCC[C@@H]1SC[C@@H]2NC(=O)N[C@@H]21)C(=O)N1CCC[C@H]1C(=O)N[C@@H](C)C(=O)N[C@@H](CCC(N)=O)C(=O)N[C@@H](CC(C)C)C(=O)N[C@@H](Cc1c[nH]cn1)C(=O)N[C@@H](Cc1ccccc1)C(=O)N[C@@H](Cc1c[nH]cn1)C(=O)N[C@@H](Cc1c[nH]c2ccccc12)C(=O)N[C@@H](CCCNC(=N)N)C(=O)N[C@@H](CO)C(N)=O, spacer; phage-selected 12-mer; also called synthetic peptide 37; source: synthetic peptide (Chiron Mimotopes, Australia)) [peptide-37 (Biotin-SGSG-FIPAQLHFHWRS-amide)] |  | binds
4 | Biotin-SGSGAKFDMHIATRLS-NH2 (SMILES CC[C@H](C)[C@H](NC(=O)[C@H](Cc1c[nH]cn1)NC(=O)[C@H](CCSC)NC(=O)[C@H](CC(=O)O)NC(=O)[C@H](Cc1ccccc1)NC(=O)[C@H](CCCCN)NC(=O)[C@H](C)NC(=O)CNC(=O)[C@H](CO)NC(=O)CNC(=O)[C@H](CO)NC(=O)CCCC[C@@H]1SC[C@@H]2NC(=O)N[C@@H]21)C(=O)N[C@@H](C)C(=O)N[C@H](C(=O)N[C@@H](CCCNC(=N)N)C(=O)N[C@@H](CC(C)C)C(=O)N[C@@H](CO)C(N)=O)[C@@H](C)O, spacer; phage-selected 12-mer; also called synthetic peptide 12; source: synthetic peptide (Chiron Mimotopes, Australia)) [peptide-12 (Biotin-SGSG-AKFDMHIATRLS-amide)] |  | binds
